Measured values taken from patent US20260069656A1, “Nutritive Polypeptides and Formulations Thereof, and Methods of Production and Use Thereof” (Axcella Health Inc., priority 2013, published 2026).

Legend:
[1] = SGF digest of the 168 nutritive polypeptide library, intact protein by LC-MS/MS spectral counts; type: in vitro ADME; settings: proteins detected in the 168 nutritive polypeptide library
Experimental: Nutritive polypeptide intact half-life determination in a complex mixture. The in vitro intact half-life of multiple polypeptides in a complex mixture was determined using the simulated gastric in vitro digestion described above. Briefly, the 168 nutritive polypeptide library was generated as described herein by cloning, transforming, and expressing a gene library encoding 168 proteins as a single mixture. The recombinantly expressed proteins were purified from host cell proteins by IMAC purification as described herein.
The 168 Protein Library was treated with SGF as described above and the t=0 and t=10 min samples were analyzed for intact protein by LC-MS/MS. To begin, 10 μg of sample was loaded onto a 10% SDS-PAGE gel (Invitrogen) and run approximately 5 cm into the gel. The gel was excised into ten fractions from 100 kD to the dye front and the gel slices were processed by washing with 25 mM ammonium bicarbonate, followed by acetonitrile. Gel fractions were then reduced with 10 mM dithiothreitol at 60° C., followed by alkylation with 50 mM iodoacetamide at room temperature. Finally, the samples were digested with trypsin (Promega) at 37° C. for 4 h and the digestions were quenched with the addition of formic acid. The samples were then analyzed by nano LC/MS/MS using an EasynLC 1000 HPLC system interfaced to a ThermoFisher Q Exactive. Peptides were loaded on a trapping column and eluted over a 75 μm analytical column at 350 nL/min; both columns were packed with PepMap C18 3 μm resin (ThemoFisher). A 1 hour gradient was employed. The mass spectrometer was operated in data-dependent mode, with MS and MS/MS performed in the Orbitrap at 70,000 FWHM resolution and 17,500 FWHM resolution, respectively. The fifteen most abundant ions were selected for MS/MS. Data were searched against an appropriate database using Mascot to identify peptides. Mascot DAT files were parsed into the Scaffold software for validation, filtering and to create a nonredundant list per sample. Data were filtered at 1% protein and peptide false discovery rate (FDR) and requiring at least two unique peptides per protein. A full list of detected proteins and their spectral counts (SpC) was generated and reported as a function of each collected gel fraction. SpC are a count of the number of spectra identified for a given protein and are used as a measure of relative protein abundance (Liu, H. et al., Analytical Chemistry 2004, 76:4193-4201). To calculate the percentage of intact protein remaining at the 10 min time point of the SGF digest the number of SpC representative of intact peptide in the t=10 min sample were divided by the number of SpC representative of intact peptide in the t=0 min sample. The number of SpC representative of intact peptide was defined as the sum of the SpC in the fraction with the highest number of SpC assigned to that protein in the t=0 min sample and the two flanking fractions.

[2] = pH solubility screen in Citric Acid / Dibasic Sodium Phosphate buffers; type: physicochemical; settings: for pH Range where Protein is >80% detected as Soluble and A650 <1 OD: Low: lower pH of range; for pH Range where Protein is >80% detected as Soluble and A650 <1 OD: High: upper pH of range
Experimental: pH Solubility. […] Protein was either lyophilized and then resuspended in buffer cocktail mixtures, or concentrated and then spiked into buffer cocktail mixtures at a final protein concentration of 5 to 30 mg/ml. As a control, protein was also dissolved in a solution of 8 M urea. Protein solutions were shaken for 10 min at room temperature. Turbidity of proteins was determined by measuring the absorbance of protein solutions at 650 nm. The protein solution was then centrifuged for 10 min at 1100×g to pellet undissolved or precipitated protein. The soluble protein fraction (supernatant) was sampled and protein concentration was measured by one or more of the following methods: Coomassie Plus Protein Assay (Pierce), Chip electrophoresis, gel electrophoresis, and/or absorbance at 280 nm. The pH range over which select proteins remained greater than 80% soluble as determined by Bradford and the A650 value are listed in Table E31C.

[3] = Thermostability, ProteoStat Thermal Shift Stability Kit, temperature of aggregation; type: physicochemical; settings: NS = protein not soluble; for Tagg (pH 7.1): heated 25° C. to 95° C.
In short: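 Proteins at ~10 mg/ml in citric acid/dibasic sodium phosphate buffer, pH 2.8 to 7.1, with ProteoStat TS detection reagent. Heated 25 °C to 95 °C at 0.5 °C per 30 sec, fluorescence monitored with a Texas Red filter.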

[4] = Intact half-life during simulated gastric fluid (SGF) digestion; settings: for Half-life: purified proteins, chip electrophoresis, SGF
Experimental: Nutritive polypeptide half-life during simulated digestion. One metric for quantifying the breakdown of polypeptides from an intact form to smaller peptides is the intact half-life. In this experiment the nutritive polypeptide was exposed to a series of proteases that are active in the stomach (pepsin) and intestine (trypsin and chymotrypsin), and the presence of intact protein was measured over time. Specifically, the nutritive polypeptide was first treated at a concentration of 2 g/L with simulated gastric fluid (SGF) (0.03 M NaCl, titrated with HCl to pH 1.5 with a final pepsin: polypeptide ratio of 1:20 w/w) at 37° C. Time points were sampled from the reaction and quenched by addition of 0.2 M Na2CO3. […] Time points were sampled from the reaction and quenched by addition of Trypsin/Chymotrypsin Inhibitor (Sigma) solution until 240 min.
Time point samples were analyzed for intact protein by chip electrophoresis, polyacrylamide gel electrophoresis, or western blot. For chip electrophoresis (Labchip GX II), samples were analyzed using a HT Low MW Protein Express LabChip® Kit (following the manufacturer's protocol). A protein ladder was loaded every 12 samples for molecular weight determination (kDa) and quantification. For polyacrylamide gel electrophoresis, samples (1 μg) were separated on a NuPAGE® Novex® Bis-Tris Precast gel (Life Technologies) according to the manufacturer's protocol. The gel was stained using SimplyBlue™ SafeStain (Invitrogen) and imaged using a Chemidoc XRS+ (BioRad) or transferred onto nitrocellulose membranes using the iBlot® Dry Blotting System (Life Technologies) and iBlot® Western Detection Kit (Life Technologies) according to the manufacturer's protocol. Proteins were detected by blotting with Anti-His [C-term]-HRP antibody diluted 3:5000 in Blok™-PO Blocking Buffer using the SNAP i.d.® Protein Detection System (Millipore) according to the manufacturer's protocol. Blots were treated with Luminata Classico Western HRP Substrate (Millipore) according to the manufacturer's protocol and imaged using chemiluminescent detection on the Molecular Imager® Gel Doc™ XR+ System (Bio-Rad). Quantification of intact protein was determined by densitometry using ImageLab (BioRad). For all analysis methods the relative concentration of the polypeptide at each time point (if detected) was plotted overtime and fit to an exponential curve to calculate the intact half-life.
Specifically, the t=0 (enzyme-free control) and t=2 min samples from the SGF digest were analyzed for intact protein as described by chip electrophoresis, SDS-PAGE, western blot, and/or LC-MS/MS. Relative quantities of polypeptides at each time point were determined and the percentage of intact protein remaining at t=2 was determined.

[5] = Solubility of proteins (lyophilized/reconstituted or ultrafiltered); settings: produced in E. coli unless otherwise noted
Experimental: Solubility. […] Protein samples were dried by lyophilization on a FreeZone Freeze Dry System (Labconco) using the manufacturer's standard protocol and then resuspended in buffer to the desired concentration. Centrifugal and tangential ultrafiltration were used to selectively remove buffer from the protein sample until the desired concentration was reached. Centrifugal ultrafiltration of protein solutions was performed by centrifugation (10,000×g) of 10 mg of protein in an Amicon centrifugal filter (Millipore) with a molecular weight cutoff of 3 kDa, 10 kDa, or 30 kDa, depending on the protein size, until the desired contrentration was reached. Ultrafiltration of protein solutions was performed on Hydrosart ultrafiltration cassettes (Sartorius Stedim, Bohemia, NY) with a molecular weight cutoff of 3 kDa, 10 kDa, or 30 kDa, depending on the protein size, at a cross flow rate of 12 L/m2/min. For most processes, transmembrane pressure was maintained at 20 psi and performed until the desired contrentration was reached.
The protein concentration of the above samples was measured by one or a combination of the following methods: Coomassie Plus Protein Assay, absorbance at 280 nm (A280), and total amino acid analysis. Coomassie Plus Protein Assays (Pierce) were performed according to the manufacturer's protocol. Absorbance at 280 nm was measured on a Nanodrop 2000 UV-Vis spectrophotometer. Protein concentration was determined using the A280 value and molar extinction coefficient, which was calculated by primary amino acid sequence using ProtParam (Gasteiger, Elisabeth, et al. The proteomics protocols handbook. Humana Press, 2005. 571-607.). Total amino acids were analyzed by HPLC after acid hydrolysis as described in Henderson, J. W., et al. Agilent Technologies (2010).

[6] = Pancreatin-based in vitro digestion, free amino acids by RP-HPLC
Experimental: In this method, pancreatin, a mixture of enzymes, is used to simulate intestinal proteases. Specifically, the digestion of polypeptides into amino acids was analyzed by an in vitro Pancreatin-based digestion assay followed by free amino acid analysis using reversed phase HPLC (RP-HPLC). The nutritive polypeptide was added to SGF (0.92 g/L Pepsin (Sigma), 0.03 M NaCl titrated with HCl to pH 1.5) at a final concentration of 4 g/L and incubated at 37° C. for 120 min. After 120 min, Na2CO3 was added to a final concentration of 16 mM to quench the pepsin reaction. […] Time points were sampled from the reaction and quenched by heating to 95° C. for 5 min. Control samples were protease-free.
Analyses were performed using an Agilent 1100 series system. Primary amino acids were derivitized pre-column at room temperature, online, using o-phthalaldehyde (OPA). The OPA-derivatives were separated using the Zorbax Eclipse-AAA 4.6×150 mm, 3.5 μm column at 40° C. The separation gradient transitioned from 100% 40 mM Na2HPO4 pH 7.8 to 65% acetonitrile/methanol/water mixture (45/45/10) over 23 minutes. Analytes were detected by fluorescence at 340 nm Ex/450 nm Em.

[7] = SGF pH 1.5, pepsin:polypeptide 1:20 w/w, 37° C., produced in E. coli unless otherwise noted

Molecule | % Remaining at 10 min [1] | pH Range where Protein is >80% detected as Soluble and A650 <1 OD: Low [2] | pH Range where Protein is >80% detected as Soluble and A650 <1 OD: High [2] | Tagg pH 6.0 [3] | Tagg pH 6.5 [3] | Tagg (pH 7.1) [3] | SGF Half-life (t½) [4, 7] | Half-life [4] | pH Range where Protein is >80% detected as Soluble and A650 <1 OD: Other [2] | Tagg pH 5.0 [3] | Tagg pH 5.6 [3] | Solubility [5] | Free Leu (μM) at 120 min time point of Pancreatin digest ([6]; after 120 min SGF, Pancreatin SIF pH 6.5) | SGF Half-life (t½) ([4]; native and modified SEQID-00363, gel electrophoresis) | Free Leu (μM) at 120 min time point of Pancreatin digest ([6]; native and modified SEQID-00363) | Tagg pH 4.6 [3] | Tagg pH 2.8 ([3]; pH 2.8) | Tagg pH 3.7 ([3]; pH 3.7) | Tagg pH 4.3 ([3]; pH 4.3)
SEQID-00511: protein of the 168 nutritive polypeptide library (protein, Arthrospira platensis C1, protein of the 168 nutritive polypeptide library) MVLFGFGKKKSLPKPEEALPGRDRVMSVPDRHYINGNPLKPPFPEGMEQAVFGLGCFWGAERKFWQQQGVFSTAVGYAGGYTKNPTYEEVCSGMTGHTEVVLVVFDPKVISYTDLLKLFWESHNPTQGMRQGNDTGTQYRSAIYTYSDEQQRLALASRDRYQQALSAASYGEITTEIAPAQEFYYAEAYHQQYLGKNPNGYCGLGGTGVGCPAMTETSV | 4.3% | 5.6 | 7.1 | 39.5 | 45.5 | 42 | 18 s | 18 s | – | – | – | – | – | – | – | – | – | – | –
SEQID-00485: nutritive polypeptide naturally produced in Chickpea, recombinantly expressed in E. coli (protein, listed as Cicer arietinum) MTKTGYINAAFRSSRNNEAYLFINDKYVLLDYAPGTSNDKVLYGPSFVRDGYKSLAKTIFGTYGIDCSFDTEYNEAFIFYENFCARIDYAPHSDKDKIISGPKKIADMFPFFKGTVFENGIDAAFRSTKGKEVYLFKGDKYARIDYLTNRLVQNIKSISDGFPCLRGTIFEAGMDSAFASHKTNEAYLFKGEYYARINFTPGSTNDIMGGVKKTLDYWPSLRGIIPLE | 0% | 4.6 | 7.1 | 36 | 36.5 | 36 | 30 s | 30 s | 2.8 | 31.5 | 34.5 | 99 mg/mL | – | – | – | – | – | – | –
SEQID-00423: nutritive polypeptide (protein, Bacillus Amyloliquefaciens) VNGTLMQYFEWYTPNDGQHWKRLQNDAEHLSDIGITAVWIPPAYKGLSQSDNGYGPYDLYDLGEFQQKGTVRTKYGTKSELQDAIGSLHSRNVQVYGDVVLNHKAGADATEDVTAVEVNPANRNQETSEEYQIKAWTDFRFPGRGNTYSDFKWHWYHFDGADWDESRKISRIFKFRGEGKAWDWEVSSENGNYDYLMYADVDYDHPDVVAETKKWGIWYANELSLDGFRIDAAKHIKFSFLRDWVQAVRQATGKEMFTVAEYWQNNAGKLENYLNKTSFNQSVFDVPLHFNLQAASSQGGGYDMRRLLDGTVVSRHPEKAVTFVENHDTQPGQSLESTVQTWFKPLAYAFILTRESGYPQVFYGDMYGTKGTSPKEIPSLKDNIEPILKARKEYAYGPQHDYIDHPDVIGWTREGDSSAAKSGLAALITDGPGGSKRMYAGLKNAGETWYDITGNRSDTVKIGSDGWGEFHVNDGSVSIYVQK | – | – | – | – | – | – | – | – | – | – | – | 193 mg/mL | 587.1 µM | – | – | – | – | – | –
Heat-denatured SEQID-00363: SEQID-00363 diluted to 30 g/L in 10% PBS and rapidly heated to 95° C. (protein, heat-denatured; Aspergillus niger) ATLDSWLSNEATVARTAILNNIGADGAWVSGADSGIVVASPSTDNPDYFYTWTRDSGLVLKTLVDLFRNGDTSLLSTIENYISAQAIVQGISNPSGDLSSGAGLGEPKFNVDETAYTGSWGRPQRDGPALRATAMIGFGQWLLDNGYTSTATDIVWPLVRNDLSYVAQYWNQTGYDLWEEVNGSSFFTIAVQHRALVEGSAFATAVGSSCSWCDSQAPEILCYLQSFWTGSFILANFDSSRSGKDANTLLGSIHTFDPEAACDDSTFQPCSPRALANHKEVVDSFRSIYTLNDGLSDSEAVAVGRYPEDTYYNGNPWFLCTLAAAEQLYDALYQWDKQGSLEVTDVSLDFFKALYSDAATGTYSSSSSTYSSIVDAVKTFADGFVSIVETHAASNGSMSEQYDKSDGEQLSARDLTWSYAALLTANNRRNSVVPASWGETSASSVPGTCAATSAIGTYSSVTVTSWPSIVATGGTTTTATPTGSGSVTSTSKTTATASKTSTSTSSTSCTTPTAVAVTFDLTATTTYGENIYLVGSISQLGDWETSDGIALSADKYTSSDPLWYVTVTLPAGESFEYKFIRIESDDSVEWESDPNREYTVPQACGTSTATVTDTWR | – | – | – | – | – | – | – | – | – | – | – | – | – | 1220 s | 763.5 µM | – | – | – | –
SEQID-00605: nutritive polypeptide naturally produced in Mushroom, recombinantly expressed in E. coli (protein, listed as Agaricus bisporus, var. bisporus; strain H97 / ATCC MYA-4626 / FGSC 10389, nutritive polypeptide naturally produced in Mushroom, recombinantly expressed in E. coli) MLEFTLNDGNRIPAIAFGTGTALYNQDASAFVRLAIETGITHLDGAQMYENEETLGKGIKSSGKPRSELFITTKLHILKPGQTVRETLVESLGKIGVDYVDLFLIHDPTANRKEATLSEIWSQLEALKNEGLTKSIGVSNFKVEDLNEILPGAKIIPAVNQIEFHPYVLKAASPIIELCKAKGIIVASYGGQTPIVRATDGPLKDLLPKIRERLEQTRGSPVTEGQVLTKWLLQKNVIAISTSSKESRIKEFLSTVDVPDLTKQEIESIDNAGSTIHKRIYMKHIFNE | 0% | 5.6 | 7.1 | 44.5 | 38.5 | 39 | 12 s | 6 s | – | 33.5 | 37 | – | – | – | – | 40.5 | – | – | –
SEQID-00502: protein of the 168 nutritive polypeptide library (protein, Glycine max, protein of the 168 nutritive polypeptide library) MASQSNTKSVHDFTVKDARGNNVNLADYKGKVLLIVNVASQCGLTNSNYTELNQLYEKYKGKGLEILAFPCNQFGAQEPGTNEEIVEFACTRFKAEFPIFDKVDVNGDNAAPLYKFLKSSKGGLFGDSIKWNFSKFLVDKDGNVVDRYAPTTSPLSIEKDIKKLLDA | 9.7% | 7.1 | – | 76.5 | 78.5 | 95 | 36 s | 36 s | 2.8 | 77 | 77 | – | – | – | – | 95 | 95 | 95 | 95
